Measurements taken from US20240309045A1, “NLRP3 INFLAMMASOME INHIBITORY PEPTIDE FOR TREATMENT OF INFLAMMATORY DISEASES” (AJOU UNIVERSITY INDUSTRY-ACADEMIC COOPERATION FOUNDATION, priority 2021, published 2024).

How the values were obtained:
[1] = target: T1, NLRP3 inflammasome (Homo sapiens, UniProt Q96P20+Q9ULZ3); assay: NLRP3-mediated IL-1β secretion ELISA (LPS priming, nigericin activation); format: cell-based; settings: THP1-derived macrophages, LPS-primed, peptide 1 to 20 μM (FIG. 1E)
T1 construct: THP1-derived macrophages were primed with LPS (10 ng/ml) for 3 hours and then treated with peptides; endogenous in cells; host or cells: THP1-derived macrophages
Method: (§1) THP1-derived macrophages were seeded at a density of […] in a 96-well plate (BD Biosciences) and grown overnight. The next day, the cells were primed with LPS (Sigma-Aldrich) at a concentration of 10 ng/ml or human tumor necrosis factor alpha (TNF-α; R&D Systems, Minneapolis, Minn., USA) at a concentration of 100 ng/ml for 3 hours, and then treated with peptides at different concentrations for 1 hour. In order to activate the NLRP3 pathway, LPS-primed cells were stimulated for 2 hours with […] nigericin (Invivogen, Carlsbad, CA, USA), which is a known NLRP3 activator. After 6 hours of treatment, the secretion levels of IL-1β and IL-18 were evaluated using a Human IL-1β Uncoated ELISA Kit (Invitrogen) and a Human IL-18 ELISA kit (RayBiotech, Norcross, GA, USA), respectively. The secretion levels of IL-8 and TNF-α were analyzed using a Human IL-8 ELISA kit and a TNF-α ELISA Kit (Invitrogen), respectively. In all experiments, absorbance was analyzed at an appropriate wavelength using a microplate spectrophotometry system (Molecular Devices Inc., Silicon Valley, CA, USA).
(§2) Overall, activation of the NLRP3 inflammasome results not only in cleavage of pro-IL-1β and pro-IL-18, but also in release of active IL-1β and IL-18 and other soluble inflammatory mediators. Thus, NIP was mainly evaluated for regulatory effect on the NLPR3-mediated pathway through the assessment of IL-1β secretion. […]

[2] = target: T1, NLRP3 inflammasome; assay: NLRP3-mediated IL-18 secretion ELISA (LPS priming, nigericin activation); format: cell-based; settings: THP1-derived macrophages, LPS-primed, nigericin (FIG. 1E, 4B)
Method: as §1, §2

T1 sequence (Q96P20 whole entry): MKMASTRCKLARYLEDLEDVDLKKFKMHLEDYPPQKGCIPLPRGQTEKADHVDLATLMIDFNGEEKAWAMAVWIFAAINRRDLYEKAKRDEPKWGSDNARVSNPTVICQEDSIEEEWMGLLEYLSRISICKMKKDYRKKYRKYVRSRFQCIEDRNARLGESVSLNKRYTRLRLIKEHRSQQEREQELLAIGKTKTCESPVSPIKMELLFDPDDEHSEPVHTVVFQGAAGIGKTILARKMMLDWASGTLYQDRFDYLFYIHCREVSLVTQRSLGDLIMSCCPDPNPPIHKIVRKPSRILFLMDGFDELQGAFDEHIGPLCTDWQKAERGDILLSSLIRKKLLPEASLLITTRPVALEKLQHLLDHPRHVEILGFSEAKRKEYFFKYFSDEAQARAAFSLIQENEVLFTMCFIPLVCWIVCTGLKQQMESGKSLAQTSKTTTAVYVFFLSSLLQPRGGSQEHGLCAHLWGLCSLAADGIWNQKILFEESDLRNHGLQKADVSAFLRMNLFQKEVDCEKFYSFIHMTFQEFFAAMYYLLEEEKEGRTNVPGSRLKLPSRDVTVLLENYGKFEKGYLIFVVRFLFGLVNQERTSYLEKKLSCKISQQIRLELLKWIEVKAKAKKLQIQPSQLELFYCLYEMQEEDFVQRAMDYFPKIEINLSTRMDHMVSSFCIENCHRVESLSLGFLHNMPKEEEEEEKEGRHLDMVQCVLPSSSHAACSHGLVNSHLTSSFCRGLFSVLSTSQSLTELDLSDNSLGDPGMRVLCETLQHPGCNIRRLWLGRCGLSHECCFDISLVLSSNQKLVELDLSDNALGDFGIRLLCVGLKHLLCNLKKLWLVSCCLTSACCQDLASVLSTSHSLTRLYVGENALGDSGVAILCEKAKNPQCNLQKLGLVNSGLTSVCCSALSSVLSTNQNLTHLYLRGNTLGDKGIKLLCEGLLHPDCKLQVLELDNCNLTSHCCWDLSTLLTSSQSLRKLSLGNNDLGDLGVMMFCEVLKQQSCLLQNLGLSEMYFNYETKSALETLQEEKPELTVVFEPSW
T1 sequence (Q9ULZ3 whole entry): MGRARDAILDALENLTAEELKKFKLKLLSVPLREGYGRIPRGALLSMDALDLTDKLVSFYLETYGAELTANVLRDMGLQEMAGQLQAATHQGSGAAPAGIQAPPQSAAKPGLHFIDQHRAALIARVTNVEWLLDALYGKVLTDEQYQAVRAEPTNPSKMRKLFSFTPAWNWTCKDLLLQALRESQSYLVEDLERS

DALDLTDKLVS (NLRP3/ASC-inhibitory peptide 7 (NIP7)) [evaluated fused at the N-terminus with penetratin]
Inhibition of NLPR3-mediated IL-1β secretion [1]: did not have the ability to inhibit
Inhibition of IL-18 secretion [2]: did not have the ability to inhibit
